Data from the supplement of paper PMC10065799, “High-throughput profiling of sequence recognition by tyrosine kinases and SH2 domains using bacterial peptide display” (eLife, 2023).

Tests used:
AncSZ = assay: phosphorylation enrichment, bacterial display (enrichment ratio); higher = better substrate or ligand; peptides without Tyr show the background
EPHB1 = EPHB1 (UniProt P54762); assay: as above
EPHB2 = EPHB2 (UniProt P29323); assay: as above
FGFR1 = FGFR1 (UniProt P11362); assay: as above
FGFR3 = FGFR3 (UniProt P22607); assay: as above
Fer (mouse) = assay: as above
Fes = Fes (UniProt P07332); assay: as above
Chain of Fes (P07332 whole entry, looked up): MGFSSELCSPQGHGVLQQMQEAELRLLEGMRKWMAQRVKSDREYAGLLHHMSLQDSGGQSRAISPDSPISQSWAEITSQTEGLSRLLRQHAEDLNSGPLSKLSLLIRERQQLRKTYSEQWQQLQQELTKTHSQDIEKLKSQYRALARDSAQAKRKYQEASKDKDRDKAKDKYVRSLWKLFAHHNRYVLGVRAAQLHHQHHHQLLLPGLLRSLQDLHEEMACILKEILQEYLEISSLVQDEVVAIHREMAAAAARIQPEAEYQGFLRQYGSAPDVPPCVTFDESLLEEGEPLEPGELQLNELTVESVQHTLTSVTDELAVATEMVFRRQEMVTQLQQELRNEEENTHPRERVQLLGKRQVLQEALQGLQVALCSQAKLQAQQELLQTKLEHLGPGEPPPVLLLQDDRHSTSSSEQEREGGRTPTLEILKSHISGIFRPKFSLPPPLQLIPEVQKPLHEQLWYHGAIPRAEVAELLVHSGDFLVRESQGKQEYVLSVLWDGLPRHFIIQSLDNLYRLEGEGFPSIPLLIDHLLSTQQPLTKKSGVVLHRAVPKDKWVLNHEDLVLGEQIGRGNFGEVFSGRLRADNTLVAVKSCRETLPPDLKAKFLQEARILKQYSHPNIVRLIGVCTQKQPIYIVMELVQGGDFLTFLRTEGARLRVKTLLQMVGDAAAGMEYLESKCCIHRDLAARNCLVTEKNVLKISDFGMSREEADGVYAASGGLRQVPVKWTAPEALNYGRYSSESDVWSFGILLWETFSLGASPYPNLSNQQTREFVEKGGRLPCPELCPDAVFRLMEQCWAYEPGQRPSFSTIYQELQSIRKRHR

Fyn = Fyn (UniProt P06241); assay: as above
Chain of Fyn (P06241 whole entry, looked up): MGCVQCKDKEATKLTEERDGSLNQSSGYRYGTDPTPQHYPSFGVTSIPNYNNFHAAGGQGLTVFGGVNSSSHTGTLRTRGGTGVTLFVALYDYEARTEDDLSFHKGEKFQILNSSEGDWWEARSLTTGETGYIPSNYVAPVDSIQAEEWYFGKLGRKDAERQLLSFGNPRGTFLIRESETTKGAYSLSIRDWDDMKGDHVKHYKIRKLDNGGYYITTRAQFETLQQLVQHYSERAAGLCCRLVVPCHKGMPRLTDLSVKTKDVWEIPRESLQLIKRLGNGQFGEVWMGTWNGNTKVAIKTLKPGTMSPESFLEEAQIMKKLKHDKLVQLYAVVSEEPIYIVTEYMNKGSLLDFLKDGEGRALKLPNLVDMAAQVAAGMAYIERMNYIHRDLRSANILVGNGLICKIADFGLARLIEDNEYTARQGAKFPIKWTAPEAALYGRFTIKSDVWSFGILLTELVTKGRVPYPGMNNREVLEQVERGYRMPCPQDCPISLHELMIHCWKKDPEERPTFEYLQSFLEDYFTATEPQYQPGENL

Hck = Hck (UniProt P08631); assay: as above
Chain of Hck (P08631 whole entry, looked up): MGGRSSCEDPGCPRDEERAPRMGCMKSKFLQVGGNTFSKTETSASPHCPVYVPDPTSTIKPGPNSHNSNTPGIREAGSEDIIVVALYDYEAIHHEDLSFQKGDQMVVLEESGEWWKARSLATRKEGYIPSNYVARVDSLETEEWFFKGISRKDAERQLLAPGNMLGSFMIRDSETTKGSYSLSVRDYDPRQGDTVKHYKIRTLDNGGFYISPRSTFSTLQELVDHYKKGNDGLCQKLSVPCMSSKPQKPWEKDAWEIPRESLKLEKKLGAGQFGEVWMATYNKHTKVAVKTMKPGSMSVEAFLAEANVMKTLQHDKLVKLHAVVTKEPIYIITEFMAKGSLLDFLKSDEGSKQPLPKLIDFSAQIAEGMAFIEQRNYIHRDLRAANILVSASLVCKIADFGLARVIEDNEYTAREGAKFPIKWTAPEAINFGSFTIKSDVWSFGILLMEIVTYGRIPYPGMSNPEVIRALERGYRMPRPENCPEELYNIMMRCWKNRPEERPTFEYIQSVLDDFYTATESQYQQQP

Jak2 = Jak2 (UniProt O60674); assay: as above
Chain of Jak2 (O60674 whole entry, looked up): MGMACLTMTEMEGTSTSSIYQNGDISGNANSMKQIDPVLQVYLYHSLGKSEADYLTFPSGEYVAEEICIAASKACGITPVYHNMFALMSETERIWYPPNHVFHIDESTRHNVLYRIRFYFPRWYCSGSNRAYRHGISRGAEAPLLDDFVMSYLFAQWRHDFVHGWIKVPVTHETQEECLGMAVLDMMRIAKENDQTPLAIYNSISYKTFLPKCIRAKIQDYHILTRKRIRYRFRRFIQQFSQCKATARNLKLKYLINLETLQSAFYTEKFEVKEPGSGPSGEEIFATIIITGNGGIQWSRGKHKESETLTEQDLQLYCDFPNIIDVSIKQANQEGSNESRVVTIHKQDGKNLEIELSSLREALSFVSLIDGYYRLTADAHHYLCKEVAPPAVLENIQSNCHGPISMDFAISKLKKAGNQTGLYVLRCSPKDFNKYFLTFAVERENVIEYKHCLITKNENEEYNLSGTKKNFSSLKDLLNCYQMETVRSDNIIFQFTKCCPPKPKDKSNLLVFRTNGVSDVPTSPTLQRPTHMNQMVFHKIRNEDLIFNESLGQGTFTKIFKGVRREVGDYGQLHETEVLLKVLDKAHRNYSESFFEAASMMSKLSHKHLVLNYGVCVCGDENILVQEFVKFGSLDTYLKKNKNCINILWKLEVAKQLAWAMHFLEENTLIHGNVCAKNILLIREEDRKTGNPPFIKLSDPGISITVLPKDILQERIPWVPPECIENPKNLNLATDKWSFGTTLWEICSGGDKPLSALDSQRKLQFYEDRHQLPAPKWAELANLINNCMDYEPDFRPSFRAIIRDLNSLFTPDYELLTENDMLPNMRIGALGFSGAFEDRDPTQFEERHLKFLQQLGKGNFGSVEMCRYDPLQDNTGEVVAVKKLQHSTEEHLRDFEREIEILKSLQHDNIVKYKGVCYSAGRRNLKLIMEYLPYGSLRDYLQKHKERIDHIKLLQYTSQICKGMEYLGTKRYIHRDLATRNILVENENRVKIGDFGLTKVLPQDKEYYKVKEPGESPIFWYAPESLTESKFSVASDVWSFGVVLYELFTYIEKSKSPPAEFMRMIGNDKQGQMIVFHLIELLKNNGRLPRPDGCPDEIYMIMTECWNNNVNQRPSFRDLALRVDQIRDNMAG

MERTK = MERTK (UniProt Q12866); assay: as above
c-Abl (mouse) = assay: as above
c-Src = assay: as above
Grb2 SH2 = Grb2 SH2 (UniProt P62993); assay: SH2 binding enrichment of the phosphorylated peptide, bacterial display (enrichment ratio); higher = better substrate or ligand; peptides without Tyr show the background
SHP2-C SH2 = assay: as above
c-Src SH2 = assay: as above
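For SH2 binding enrichment of the phosphorylated peptide, bacterial display in this document: peptide library displayed on the E. coli surface as eCPX fusions, selected cells deep-sequenced, score is each peptide's frequency after selection divided by its frequency in the input.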
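For phosphorylation enrichment, bacterial display in this document: 11-residue human phosphosite peptides and single-mutation variants displayed on the E. coli surface, counted by deep sequencing, each peptide's frequency after selection divided by its frequency in the unselected input library; frequency after pTyr selection over input frequency; kinase dosed for 20-30% of maximal phosphorylation in three min.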

Chain of EPHB2 (P29323 whole entry, looked up): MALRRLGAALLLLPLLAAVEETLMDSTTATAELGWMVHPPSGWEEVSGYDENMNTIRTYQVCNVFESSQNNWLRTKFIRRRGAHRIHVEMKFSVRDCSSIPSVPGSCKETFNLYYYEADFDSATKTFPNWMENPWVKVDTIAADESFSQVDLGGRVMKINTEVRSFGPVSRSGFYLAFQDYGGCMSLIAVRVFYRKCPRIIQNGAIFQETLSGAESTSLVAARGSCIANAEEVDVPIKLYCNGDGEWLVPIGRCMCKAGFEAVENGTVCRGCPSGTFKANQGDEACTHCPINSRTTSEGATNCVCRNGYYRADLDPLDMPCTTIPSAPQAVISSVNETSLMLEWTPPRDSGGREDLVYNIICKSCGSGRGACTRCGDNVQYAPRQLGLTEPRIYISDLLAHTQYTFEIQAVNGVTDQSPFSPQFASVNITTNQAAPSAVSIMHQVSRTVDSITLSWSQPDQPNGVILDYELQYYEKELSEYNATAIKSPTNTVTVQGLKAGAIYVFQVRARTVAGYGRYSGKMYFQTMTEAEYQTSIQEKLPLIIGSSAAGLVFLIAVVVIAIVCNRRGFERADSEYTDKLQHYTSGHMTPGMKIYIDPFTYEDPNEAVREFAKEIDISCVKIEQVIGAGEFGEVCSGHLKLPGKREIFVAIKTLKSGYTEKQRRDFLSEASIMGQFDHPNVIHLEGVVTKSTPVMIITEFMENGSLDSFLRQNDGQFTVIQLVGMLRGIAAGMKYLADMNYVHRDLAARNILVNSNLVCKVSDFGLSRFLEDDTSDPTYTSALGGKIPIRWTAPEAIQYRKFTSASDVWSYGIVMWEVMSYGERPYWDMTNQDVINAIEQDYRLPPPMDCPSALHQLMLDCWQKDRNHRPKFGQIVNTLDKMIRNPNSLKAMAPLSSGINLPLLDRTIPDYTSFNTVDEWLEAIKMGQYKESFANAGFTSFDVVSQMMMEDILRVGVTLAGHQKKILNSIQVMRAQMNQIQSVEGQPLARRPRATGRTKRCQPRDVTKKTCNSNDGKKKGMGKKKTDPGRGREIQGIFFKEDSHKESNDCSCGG
Chain of EPHB1 (P54762 whole entry, looked up): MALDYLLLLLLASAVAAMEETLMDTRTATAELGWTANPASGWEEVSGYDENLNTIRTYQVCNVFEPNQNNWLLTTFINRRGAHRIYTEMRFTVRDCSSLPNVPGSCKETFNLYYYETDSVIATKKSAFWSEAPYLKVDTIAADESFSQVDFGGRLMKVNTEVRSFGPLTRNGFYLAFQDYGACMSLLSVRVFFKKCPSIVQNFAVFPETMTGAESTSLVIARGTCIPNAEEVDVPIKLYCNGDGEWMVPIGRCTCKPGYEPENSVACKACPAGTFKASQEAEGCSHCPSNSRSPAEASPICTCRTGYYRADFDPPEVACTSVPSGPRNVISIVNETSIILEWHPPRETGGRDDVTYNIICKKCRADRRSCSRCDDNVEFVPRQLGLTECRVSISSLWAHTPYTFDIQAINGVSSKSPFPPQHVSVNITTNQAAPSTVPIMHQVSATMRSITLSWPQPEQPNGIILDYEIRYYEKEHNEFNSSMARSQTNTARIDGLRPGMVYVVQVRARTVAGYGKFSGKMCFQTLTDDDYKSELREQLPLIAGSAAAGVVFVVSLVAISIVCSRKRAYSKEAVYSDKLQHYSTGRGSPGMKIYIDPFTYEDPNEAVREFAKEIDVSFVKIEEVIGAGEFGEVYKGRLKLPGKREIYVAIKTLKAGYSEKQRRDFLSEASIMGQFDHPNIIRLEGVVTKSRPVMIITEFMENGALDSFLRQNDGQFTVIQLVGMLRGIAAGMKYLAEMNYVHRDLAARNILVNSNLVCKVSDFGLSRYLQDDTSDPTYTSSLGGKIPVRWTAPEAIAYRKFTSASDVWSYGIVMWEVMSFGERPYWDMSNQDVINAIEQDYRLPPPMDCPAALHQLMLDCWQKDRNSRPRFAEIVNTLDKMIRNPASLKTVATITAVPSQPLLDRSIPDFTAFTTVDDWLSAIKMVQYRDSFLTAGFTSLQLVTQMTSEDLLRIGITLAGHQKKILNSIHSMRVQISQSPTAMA

SH2 binding enrichment (Grb2 SH2) | SH2 binding enrichment (SHP2-C SH2) | SH2 binding enrichment (c-Src SH2) | Sequence | phosphorylation enrichment (AncSZ) | phosphorylation enrichment (EPHB1) | phosphorylation enrichment (EPHB2) | phosphorylation enrichment (FGFR1) | phosphorylation enrichment (FGFR3) | phosphorylation enrichment (Fer (mouse)) | phosphorylation enrichment (Fes) | phosphorylation enrichment (Fyn) | phosphorylation enrichment (Hck) | phosphorylation enrichment (Jak2) | phosphorylation enrichment (MERTK) | phosphorylation enrichment (c-Abl (mouse)) | phosphorylation enrichment (c-Src)
1.4 | 1.02 | 0.816 | IKIMGYSIRTI [IDS_Y490] | 0.991 | 0.494 | 0.52 | 0.424 | 0.657 | 0.478 | 1.01 | 0.452 | 0.457 | 0.862 | 0.455 | 0.822 | 0.571
0.935 | 0.651 | 0.494 | ILDEAYVMAGV [ERBB2_Y772] | 1.11 | 0.439 | 0.487 | 0.622 | 0.642 | 0.448 | 0.916 | 0.555 | 0.532 | 0.832 | 0.441 | 0.577 | 0.694
2.37 | 1.83 | 0.899 | IMITGYLLLFR [INSR_Y87_D86G] | 1.19 | 0.521 | 0.547 | 0.721 | 0.866 | 0.593 | 1.4 | 0.63 | 0.57 | 1.02 | 0.668 | 1.13 | 0.419
0.776 | 0.6 | 0.46 | INPIIYAFVGE [CCR5_Y297] | 1.17 | 10.7 | 9.51 | 3.48 | 2.75 | 6.77 | 2.02 | 6.13 | 6.19 | 1.03 | 7.72 | 10.4 | 4.84
0.763 | 0.777 | 0.564 | IPQEEYKATGL | 0.84 | 0.706 | 0.635 | 0.527 | 0.677 | 0.531 | 1.18 | 0.497 | 0.631 | 0.93 | 0.492 | 0.776 | 0.535
1.21 | 0.381 | 0.732 | IRKDLYANNVM [ACTA1_Y296] | 0.559 | 0.605 | 0.527 | 0.447 | 0.588 | 0.436 | 0.863 | 0.488 | 0.572 | 0.772 | 0.413 | 0.576 | 0.419
0.761 | 0.527 | 0.467 | IRTDAYVRAMT [RPE65_Y89] | 0.515 | 0.438 | 0.458 | 0.444 | 0.482 | 0.398 | 0.605 | 0.463 | 0.414 | 0.481 | 0.402 | 0.522 | 0.382
1.75 | 2 | 3.02 | ISKILYHIIKG [CDH17_Y489_S484I] | 0.779 | 0.679 | 0.535 | 0.651 | 0.601 | 0.379 | 0.823 | 0.449 | 0.508 | 0.783 | 1.11 | 0.601 | 0.551
0.916 | 0.613 | 1.42 | ISKQGYDEAGP [ACTC1_Y364_E363G] | 0.897 | 0.601 | 0.532 | 0.539 | 0.567 | 0.507 | 1.01 | 0.452 | 0.572 | 0.931 | 0.666 | 0.793 | 0.541
0.712 | 0.715 | 0.505 | ISRDVYSTDFF [NTRK2_Y702_M697I_YF] | 0.903 | 0.866 | 0.819 | 0.934 | 0.855 | 0.568 | 0.929 | 3.12 | 1.35 | 0.785 | 5.74 | 0.666 | 2.84
0.614 | 0.484 | 0.321 | ITLKGYNLSKS [GNPTAB_Y728] | 0.601 | 0.342 | 0.346 | 0.397 | 0.402 | 0.414 | 0.686 | 0.355 | 0.426 | 0.482 | 0.367 | 0.317 | 0.451
0.998 | 0.954 | 0.962 | ITNLLYHVVGW [GBA_Y412] | 1.18 | 5.73 | 3.59 | 6.87 | 5.65 | 2.79 | 1.32 | 4.07 | 5.96 | 3 | 7.56 | 2.9 | 4.6
0.854 | 0.695 | 1.1 | ITRDIYETDYY [INSR_Y1185_M1180I] | 2.67 | 1.45 | 1.55 | 2.03 | 1.95 | 0.72 | 1.47 | 1.58 | 1.19 | 1.09 | 0.828 | 0.722 | 2.76
1.5 | 1.61 | 1.27 | IVFVIYDEVVK [SLC25A1_Y297] | 1.16 | 1.9 | 2.01 | 0.53 | 0.863 | 0.708 | 1.19 | 1.03 | 1.44 | 1.26 | 0.576 | 0.888 | 0.855
0.821 | 0.671 | 0.45 | IYLADCRIMEG [ALOX12B_Y318_Y318C] | 1.27 | 0.693 | 0.932 | 0.648 | 0.842 | 0.65 | 1.36 | 0.684 | 0.691 | 0.95 | 0.556 | 0.869 | 0.559
0.825 | 0.702 | 0.528 | IYRASYYRKGG [ALK_Y1282] | 0.615 | 0.419 | 0.481 | 0.414 | 0.403 | 0.45 | 0.622 | 0.513 | 0.476 | 0.753 | 0.621 | 0.676 | 0.557

SH2 binding enrichment (Grb2 SH2) | SH2 binding enrichment (SHP2-C SH2) | SH2 binding enrichment (c-Src SH2) | Sequence | phosphorylation enrichment (AncSZ) | phosphorylation enrichment (EPHB1) | phosphorylation enrichment (EPHB2) | phosphorylation enrichment (FGFR1) | phosphorylation enrichment (FGFR3) | phosphorylation enrichment (Fer (mouse)) | phosphorylation enrichment (Fes) | phosphorylation enrichment (Fyn) | phosphorylation enrichment (Hck) | phosphorylation enrichment (Jak2) | phosphorylation enrichment (MERTK) | phosphorylation enrichment (c-Abl (mouse)) | phosphorylation enrichment (c-Src)
1.01 | 1.22 | 1.28 | IYSGIYYKPES [L2HGDH_Y102_H98Y] | 3.08 | 14.1 | 15.9 | 8.71 | 7.9 | 15.8 | 9.02 | 10.2 | 9.78 | 7.32 | 11.5 | 23.7 | 7.25
4.72 | 0.674 | 3.58 | KAPPTYDNVLQ [CYP3A4_Y347_T349N] | 0.606 | 6.04 | 3.6 | 0.452 | 0.482 | 1.85 | 0.714 | 0.978 | 1.68 | 0.514 | 1.22 | 0.511 | 0.785
0.969 | 0.489 | 0.602 | KAWGIYDCQQP [CYP3A7_Y75_V71A] | 1.73 | 8.32 | 4.21 | 0.53 | 0.852 | 3.52 | 1.56 | 7.28 | 6.67 | 1.12 | 5.53 | 1.12 | 4.8
0.897 | 0.875 | 0.518 | KAWTIYHPEDS [ZBP1_Y165_R166H] | 0.949 | 0.559 | 0.547 | 0.432 | 0.787 | 0.482 | 1.02 | 0.646 | 0.569 | 0.871 | 0.474 | 0.723 | 0.833
0.742 | 0.682 | 0.425 | KEELDYLKKNH [KRT14_Y248_A247D] | 1.04 | 0.554 | 0.624 | 0.447 | 0.666 | 0.45 | 1.1 | 0.355 | 0.382 | 0.879 | 0.419 | 0.854 | 0.467
0.91 | 0.715 | 0.583 | KFANSYIMEPL [TCTE3_Y87_R88I] | 0.853 | 0.39 | 0.531 | 0.524 | 0.629 | 0.498 | 0.606 | 0.529 | 0.432 | 0.476 | 0.37 | 0.436 | 0.712
0.802 | 0.548 | 0.444 | KFDLMYAKRAF [TUBA1A_Y399] | 0.905 | 0.535 | 0.536 | 0.465 | 0.589 | 0.442 | 0.921 | 0.434 | 0.463 | 0.667 | 0.414 | 0.544 | 0.409
0.991 | 1.06 | 0.741 | KFLENYFDLEK [MMP3_Y41_K45E_YF] | 1.39 | 2.5 | 0.878 | 3.77 | 2.14 | 0.439 | 1.23 | 0.467 | 0.487 | 1.39 | 0.46 | 0.844 | 0.502
1.2 | 1.29 | 1.22 | KGRGEYFAIKA [PRKCD_Y374] | 0.702 | 0.943 | 0.905 | 4.32 | 2.67 | 0.451 | 0.666 | 0.426 | 0.614 | 0.702 | 0.381 | 0.769 | 0.47
0.974 | 0.933 | 1.81 | KGRGEYSAIKA [PRKCD_Y374_F375S] | 0.553 | 0.434 | 0.366 | 0.393 | 0.443 | 0.45 | 0.864 | 0.412 | 0.811 | 0.636 | 0.603 | 0.761 | 0.625
1.18 | 0.859 | 0.573 | KHMADYPDCKF [SOX11_Y113_Y116C_YF] | 0.92 | 0.532 | 0.556 | 0.587 | 0.74 | 0.495 | 1.04 | 0.423 | 0.475 | 0.879 | 0.456 | 0.703 | 0.397
1.03 | 1.2 | 0.92 | KHVMPYAANKN [GRIN2A_Y1431_E1426K] | 0.547 | 0.301 | 0.43 | 0.401 | 0.387 | 0.374 | 0.511 | 0.345 | 0.332 | 0.443 | 0.383 | 0.484 | 0.36
0.861 | 0.82 | 3.04 | KIITDYYVDMK [MPP4_Y566_V562I] | 1.09 | 1.56 | 0.718 | 4.12 | 2.6 | 0.482 | 0.941 | 0.55 | 0.449 | 1.22 | 0.547 | 0.677 | 0.517
0.871 | 0.529 | 0.388 | KILAKYSLETS [NAMPT_Y175_L176S] | 0.537 | 0.335 | 0.409 | 0.442 | 0.456 | 0.377 | 0.58 | 0.354 | 0.437 | 0.503 | 0.256 | 0.476 | 0.301
0.848 | 0.982 | 0.638 | KILGTYFETGS [PAX2_Y72_R71T_YF] | 0.833 | 0.491 | 0.47 | 0.814 | 0.793 | 0.467 | 0.867 | 0.577 | 0.485 | 0.717 | 0.5 | 0.668 | 0.585
0.697 | 0.486 | 0.479 | KITVIYDGACQ [VWDE_Y1035] | 1.1 | 0.599 | 0.664 | 0.438 | 0.778 | 0.574 | 1.28 | 0.51 | 0.711 | 1.14 | 0.437 | 0.837 | 0.721

Sequence | SH2 binding enrichment (Grb2 SH2) | SH2 binding enrichment (SHP2-C SH2) | SH2 binding enrichment (c-Src SH2) | phosphorylation enrichment (AncSZ) | phosphorylation enrichment (EPHB1) | phosphorylation enrichment (EPHB2) | phosphorylation enrichment (FGFR1) | phosphorylation enrichment (FGFR3) | phosphorylation enrichment (Fer (mouse)) | phosphorylation enrichment (Fes) | phosphorylation enrichment (Fyn) | phosphorylation enrichment (Hck) | phosphorylation enrichment (Jak2) | phosphorylation enrichment (MERTK) | phosphorylation enrichment (c-Abl (mouse)) | phosphorylation enrichment (c-Src)
KGEDFYCVTCH [FHL1_Y149] | 1.19 | 0.842 | 0.962 | 1.09 | 0.696 | 0.569 | 0.579 | 0.775 | 0.504 | 1.12 | 0.797 | 0.801 | 0.933 | 0.597 | 0.675 | 0.613
